Measurements published in patent US10975123B2, “Mutant Akt-specific capture agents, compositions, and methods of using and making” (California Institute of Technology, priority 2014, dated 2021).

Legend:
WT GST-PH Domain (Akt1) = target: T1, WT GST-PH Domain (Akt1) (Homo sapiens, UniProt P31749); assay: Full curve ELISA, immobilized ligand, WT protein; format: binding; conditions: in words
T1 construct: The first 124 N-terminal amino acids from full length Akt1 were used as the PH Domain DNA; GST (N); thrombin cleavage site (C); 6His (C); made in house; host or cells: E. coli BL21-DE3-pLys
T1 sequence (P31749 1-124): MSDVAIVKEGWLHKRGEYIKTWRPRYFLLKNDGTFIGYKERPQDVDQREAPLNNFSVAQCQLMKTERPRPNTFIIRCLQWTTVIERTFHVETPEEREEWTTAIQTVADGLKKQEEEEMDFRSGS
Protocol: The full curve ELISAs were obtained using streptavidin coated ELISA plates (Pierce). The ligands—anchor, biligand, triligand and “eflya” scrambled anchor peptide blank—were laid down at a concentration of 1 μM for one hour. Two lanes of each ligand were used on the plate for both proteins—WT and E17K GST-PH Domain. The plates were blocked with 5% BSA for two hours. Dilutions of both WT and E17K GST-PH Domain proteins were made in 0.5% BSA in 1×TBS starting from 1 μM-0.5 nM by serially diluting 1:2 down a series of 8 samples. For each ligand, a no protein blank was also used. The proteins were incubated with the blocked plate for one hour, washed 3× with 1×TBST+0.5% BSA and tapped dry, then detected with a 1:10,000 dilution of an HRP conjugated anti-GST pAb. The plate was again washed 3× with 1×TBST and tapped dry. It was developed with a 1:1 solution of TMB substrate and development was stopped with 1M H2SO4 and read on a plate reader. The curves in FIG. 4B were plotted by normalizing the signal by the blank wells, and were fitted to a Hill function in GraphPad using a common saturation and slope (Bmax=1.466+/−0.03, h=0.7383+/−0.025).

[1] = target: T2, E17K GST-PH Domain (E17K Akt1) (Homo sapiens, UniProt P31749, E17K); assay: Full curve ELISA, immobilized ligand, E17K protein; format: binding; conditions: in words
T2 construct: The first 124 N-terminal amino acids from full length Akt1 were used as the PH Domain DNA; GST (N); thrombin cleavage site (C); 6His (C); made in house; host or cells: E. coli BL21-DE3-pLys
T2 sequence (P31749 1-124 E17K): as the sequence (P31749 1-124) above, with E17K counted along it
Protocol: The full curve ELISAs were obtained using streptavidin coated ELISA plates (Pierce). The ligands—anchor, biligand, triligand and “eflya” scrambled anchor peptide blank—were laid down at a concentration of 1 μM for one hour. Two lanes of each ligand were used on the plate for both proteins—WT and E17K GST-PH Domain. The plates were blocked with 5% BSA for two hours. Dilutions of both WT and E17K GST-PH Domain proteins were made in 0.5% BSA in 1×TBS starting from 1 μM-0.5 nM by serially diluting 1:2 down a series of 8 samples. For each ligand, a no protein blank was also used. The proteins were incubated with the blocked plate for one hour, washed 3× with 1×TBST+0.5% BSA and tapped dry, then detected with a 1:10,000 dilution of an HRP conjugated anti-GST pAb. The plate was again washed 3× with 1×TBST and tapped dry. It was developed with a 1:1 solution of TMB substrate and development was stopped with 1M H2SO4 and read on a plate reader.

iryrn: triligand candidate: biligand yleaf-yksy with tertiary ligand iryrn (SEQ ID NO: 92) (IRYRN)
change in binding affinity for the WT protein versus the preceding ligand (ELISA) (WT GST-PH Domain (Akt1)): an even bigger increase for the WT protein
change in binding affinity for the E17K protein versus the preceding ligand (ELISA) [1]: a significant improvement on the binding affinity for the E17K protein
